This passage reports Km, Vmax and kcat/Km results from paper PMC9768450.

What all share (assay): purified protein
For data set [1], the system named is CC(=O)SCCNC(=O)CCNC(=O)[C@H](O)C(C)(C)COP(=O)(O)OP(=O)(O)OC[C@H]1O[C@@H](n2cnc3c(N)ncnc32)[C@H](O)[C@@H]1OP(=O)(O)O. The settings on record: co-substrate succinate 40 mM, 100 mM Tris-HCl pH 7.8, 5 mM MgCl2, 5 mM DTT, 55 °C.
Data set [2] deals with CC(C)(COP(=O)(O)OP(=O)(O)OC[C@H]1O[C@@H](n2cnc3c(N)ncnc32)[C@H](O)[C@@H]1OP(=O)(O)O)[C@@H](O)C(=O)NCCC(=O)NCCSC(=O)CCC(=O)O. The settings on record: co-substrate propionate 20 mM, 100 mM Tris-HCl pH 7.8, 5 mM MgCl2, 5 mM DTT, 55 °C.
For the next data set, the system named is CCC(=O)O. Particulars: co-substrate acetyl-CoA 2 mM, 100 mM Tris-HCl pH 7.8, 5 mM MgCl2, 5 mM DTT, 55 °C.
For data set [3], the system named is CCC(=O)SCCNC(=O)CCNC(=O)[C@H](O)C(C)(C)COP(=O)(O)OP(=O)(O)OC[C@H]1O[C@@H](n2cnc3c(N)ncnc32)[C@H](O)[C@@H]1OP(=O)(O)O. Particulars: co-substrate acetate 20 mM, 100 mM Tris-HCl pH 7.8, 5 mM MgCl2, 5 mM DTT, 55 °C.
The subject of the next data set is O=C(O)CCCO. Particulars: co-substrate acetyl-CoA 1 mM, 100 mM Tris-HCl pH 7.8, 5 mM MgCl2, 5 mM DTT, 55 °C.

For “succinyl-CoA:acetate CoA-transferase encoded by the AHF96498 gene (AHF96498 gene product) (Desulfurella acetivorans A63)”, the Michaelis constant (Km) was 200 ± 40 µM in data set [1]; 1200 ± 300 µM in data set [2]; 3900 ± 800 µM with CCC(=O)O; 1100 ± 300 µM in data set [3]; 400 ± 100 µM in the data set on O=C(O)CCCO. Moreover, the Vmax in data set [1] worked out at 90 µmol/min/mg; with CCC(=O)O, 875 µmol/min/mg; in data set [3], 669 µmol/min/mg; with O=C(O)CCCO, 7.7 µmol/min/mg. Moreover, the kcat/Km in data set [1] is 534000 M⁻¹ s⁻¹; in data set [2] it was 14000 M⁻¹ s⁻¹; with CCC(=O)O, 223000 M⁻¹ s⁻¹; in data set [3], 584000 M⁻¹ s⁻¹; in the data set on O=C(O)CCCO, 24000 M⁻¹ s⁻¹.
